Experiments:
Peptide_003 = target: T1, Peptide_003; assay: peptide microarray
T1 peptide: EVMEDHAGTYGLGDR

Peptide_030 = target: T2, Peptide_030; assay: peptide microarray
T2 peptide: DGKTKIATPRGAAPP

Peptide_021 = target: T3, Peptide_021; assay: peptide microarray
T3 peptide: DTPSLEDEAAGHVTQ

Peptide_009 = target: T4, Peptide_009; assay: peptide microarray
T4 peptide: QDQEGDTDAGLKESP

Peptide_001 = target: T5, Peptide_001; assay: peptide microarray
T5 peptide: MAEPRQEFEVMEDHA

Peptide_025 = target: T6, Peptide_025; assay: peptide microarray
T6 peptide: RMVSKSKDGTGSDDK

Peptide_100 = target: T7, Peptide_100; assay: peptide microarray
T7 peptide: ATLADEVSASLAKQG

Peptide_094 = target: T8, Peptide_094; assay: peptide microarray
T8 peptide: DTSPRHLSNVSSTGS

Peptide_093 = target: T9, Peptide_093; assay: peptide microarray
T9 peptide: VVSGDTSPRHLSNVS

Peptide_087 = target: T10, Peptide_087; assay: peptide microarray
T10 peptide: HKLTFRENAKAKTDH

Peptide_095 = target: T11, Peptide_095; assay: peptide microarray
T11 peptide: RHLSNVSSTGSIDMV

Peptide_089 = target: T12, Peptide_089; assay: peptide microarray
T12 peptide: AKAKTDHGAEIVYKS

Peptide_084 = target: T13, Peptide_084; assay: peptide microarray
T13 peptide: HVPGGGNKKIETHKL

Peptide_088 = target: T14, Peptide_088; assay: peptide microarray
T14 peptide: FRENAKAKTDHGAEI

Peptide_080 = target: T15, Peptide_080; assay: peptide microarray
T15 peptide: FKDRVQSKIGSLDNI

Peptide_081 = target: T16, Peptide_081; assay: peptide microarray
T16 peptide: VQSKIGSLDNITHVP

Peptide_079 = target: T17, Peptide_079; assay: peptide microarray
T17 peptide: EKLDFKDRVQSKIGS

Peptide_076 = target: T18, Peptide_076; assay: peptide microarray
T18 peptide: HKPGGGQVEVKSEKL

Peptide_077 = target: T19, Peptide_077; assay: peptide microarray
T19 peptide: GGQVEVKSEKLDFKD

Peptide_097 = target: T20, Peptide_097; assay: peptide microarray
T20 peptide: TGSIDMVDSPQLATL

Peptide_078 = target: T21, Peptide_078; assay: peptide microarray
T21 peptide: EVKSEKLDFKDRVQS

Peptide_086 = target: T22, Peptide_086; assay: peptide microarray
T22 peptide: KIETHKLTFRENAKA

Peptide_101 = target: T23, Peptide_101; assay: peptide microarray
T23 peptide: TLADEVSASLAKQGL

Peptide_082 = target: T24, Peptide_082; assay: peptide microarray
T24 peptide: IGSLDNITHVPGGGN

Peptide_096 = target: T25, Peptide_096; assay: peptide microarray
T25 peptide: NVSSTGSIDMVDSPQ

Peptide_075 = target: T26, Peptide_075; assay: peptide microarray
T26 peptide: GNIHHKPGGGQVEVK

Peptide_083 = target: T27, Peptide_083; assay: peptide microarray
T27 peptide: DNITHVPGGGNKKIE

Peptide_090 = target: T28, Peptide_090; assay: peptide microarray
T28 peptide: TDHGAEIVYKSPVVS

Peptide_092 = target: T29, Peptide_092; assay: peptide microarray
T29 peptide: YKSPVVSGDTSPRHL

Peptide_091 = target: T30, Peptide_091; assay: peptide microarray
T30 peptide: AEIVYKSPVVSGDTS

[1] = target: T31, recombinant human tau incubated with poly(A) RNA (human, UniProt P10636-7 1-412, limits assumed); assay: dot blot, 20 ng tau, 8 replicates, reference heparin incubated tau
T31 construct: Oligomeric complex with RNA; also called tau/RNA complexes; TRCs
Protocol: To control for other polyanions inducing the TRC35+ tau conformation, recombinant protein was purified from E. coli overexpressing human tau. Twenty ng of purified tau proteins was incubated with poly(A) RNA or Heparin as shown in representative blots above. In total, 8 replicate samples were dot blotted with mAb TRC35 (FIG. 11A) and SP70 total tau mAb (FIG. 11B) as previously described for FIG. 1.

[2] = target: T32, Alzheimer's disease tau (ADtau) fibrillar material (human, UniProt P10636-8 2-441, limits assumed, pathological tau with phosphorylation (pS422 detected); sites otherwise not stated); assay: native dot blot densitometry, 20 ng per dot, reference recombinant tau
T32 construct: Aggregated, brain-derived material; also called detergent insoluble pathological tau purified from Alzheimer's disease brain tissue; Alzheimer's disease derived tau
Protocol: Shown is a native protein dot blot loaded with equivalent mass of E. coli derived recombinant tau (top row, 20 ng) or Alzheimer's disease derived tau (ADtau) (bottom row, 20 ng). […] C57BL/6 (B6) mouse immunostaining included as controls. Insets depict TRC35 immunoreactivity at higher magnification in the CA1. Scale bar=500 um at low power magnification and 50 μm in the insets.
Characterization of TRC35 monoclonal antibodies. TRC35 monoclonal antibodies were used to dot blot equivalent amounts (20 ng) E. coli-expressed native recombinant tau protein and Alzheimer's disease tau (ADtau) fibrillar material. […] Protein preparations were not denatured prior to blotting to preserve native conformations expected of a conformation dependent monoclonal antibody. Dot blots were performed using the Bio-Dot Microfiltration Apparatus as recommended by the manufacturer (Bio-Rad, catalog #170-6545). Membranes were blocked in blocking solution [20 mM Tris, 500 mM NaCl, 1% bovine serum albumin (w/v) | and probed with TRC35 at 1:50,000 as primary antibody in TTBS buffer [20 mM Tris, 500 mM NaCl, 1% bovine serum albumin (w/v), 0.5% (w/v) Tween20]. Blots were washed 3 times in TTBS to remove excess primary antibody. […] Immunoreactivity was measured using Clarity Western ECL reagents (Bio-Rad) Images were scanned and quantitated using LI-COR Image Studio software.

T31 sequence (P10636 other isoform, or with tags, fused parts or gaps limits assumed): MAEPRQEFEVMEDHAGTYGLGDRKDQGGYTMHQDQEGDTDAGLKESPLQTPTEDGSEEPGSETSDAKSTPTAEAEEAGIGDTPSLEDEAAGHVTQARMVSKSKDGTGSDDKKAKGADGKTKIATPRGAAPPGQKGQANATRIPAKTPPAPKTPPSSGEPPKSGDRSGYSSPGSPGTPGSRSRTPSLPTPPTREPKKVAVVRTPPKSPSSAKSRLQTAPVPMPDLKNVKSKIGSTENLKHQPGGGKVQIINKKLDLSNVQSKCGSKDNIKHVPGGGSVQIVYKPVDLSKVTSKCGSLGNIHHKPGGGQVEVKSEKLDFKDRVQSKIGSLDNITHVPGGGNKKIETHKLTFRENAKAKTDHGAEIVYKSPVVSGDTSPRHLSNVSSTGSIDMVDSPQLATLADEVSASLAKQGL
T32 sequence (P10636 other isoform, or with tags, fused parts or gaps limits assumed): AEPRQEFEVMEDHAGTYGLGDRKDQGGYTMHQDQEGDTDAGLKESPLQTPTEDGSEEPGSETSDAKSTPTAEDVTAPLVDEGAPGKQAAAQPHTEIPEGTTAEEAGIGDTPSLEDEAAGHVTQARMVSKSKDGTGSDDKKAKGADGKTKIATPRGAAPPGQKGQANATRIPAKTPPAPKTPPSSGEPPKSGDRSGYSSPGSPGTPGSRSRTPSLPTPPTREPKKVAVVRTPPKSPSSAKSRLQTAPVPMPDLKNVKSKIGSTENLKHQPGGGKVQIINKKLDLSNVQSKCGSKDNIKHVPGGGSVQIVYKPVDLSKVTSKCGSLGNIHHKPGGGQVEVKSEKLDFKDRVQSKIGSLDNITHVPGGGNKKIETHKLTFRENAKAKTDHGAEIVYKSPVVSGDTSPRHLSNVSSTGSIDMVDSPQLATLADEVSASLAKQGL

B1: mAb TRC35 (antibody, V domains shown)
VH: QVQLQQPGTELVKPGASVKLSCKASGYTFTSYWLQWVKQRPGQGLEWIGEIDPSDSYTNYNQKFKGKATLTVDTSSSTAYMQLSSLTSEDSAVYYCATLTGSWGQGTTLAVSS
VL: DVLLTQTPLSLPVSLGDQASISCRASQSIVDSNGNTFLEWYLQKSGQSPKVLIYKVSNRFSGVPDRFSGRGSGTDFTLKISRVEAEDLGVYYCFQGSHVPYTFGGGTKLEIK
notes: Mouse hybridoma monoclonal antibody raised in tau knockout mice against tau/poly(A) RNA complexes; IgG1 isotype, kappa light chain; also called TRC35 monoclonal antibody; hybridoma clone #35
no binding (tested: 1 ug/ml): binding result (Peptide_003) | binding result (Peptide_030) | binding result (Peptide_021) | binding result (Peptide_009) | binding result (Peptide_001) | binding result (Peptide_025) | binding result (Peptide_100) | binding result (Peptide_094) | binding result (Peptide_093) | binding result (Peptide_087) | binding result (Peptide_095) | binding result (Peptide_089) | binding result (Peptide_084) | binding result (Peptide_088) | binding result (Peptide_080) | binding result (Peptide_081) | binding result (Peptide_079) | binding result (Peptide_076) | binding result (Peptide_077) | binding result (Peptide_097) | binding result (Peptide_078) | binding result (Peptide_086) | binding result (Peptide_101) | binding result (Peptide_082) | binding result (Peptide_096) | binding result (Peptide_075) | binding result (Peptide_083) | binding result (Peptide_090) | binding result (Peptide_092) | binding result (Peptide_091)
~2 fold: fold TRC35 signal normalized to SP70, relative to heparin [1]
8 fold: fold selectivity for ADtau over native tau [2]
